Results published in the DeepSol protein solubility set.

Test: soluble on expression in E. coli; label from the status in PepcDB or PDB records

| Sequence | soluble on expression in E. coli |
| --- | --- |
| MSGIFGVIVSGRTPIEVVPVSDTEFTCEIVNADAINHVVVFLTGAQPFPDGIGGSGDHFQNFPPKKTQFISVYIRWPTQDGGNWHYLGFICNEKPSAIYKVAQLHKSDASHSFSQFDNQMQLYSSGSAQIGINAESLSDITGRQAADGTQASQQVKNLEKNT | soluble |
| SQHFGRPRTTHEFLFGALAELVDNARDADATRIDIYAERREDLRGGFMLCFLDDGAGMDPSDAASVIQFGKSAKRTPESTQIGQYGNGLKSGSMRIGKDFILFTKKEDTMTCLFLSRTFHEEEGIDEVIVPLPTWNARTREPVTDNVEKFAIETELIYKYSPFRTEEEVMTQFMKIPGDSGTLVIIFNLKLMDNGEPELDIISNPRDIQMAETSPEGTKPERRSFRAYAAVLYIDPRMRIFIHGHKVQTKRLSCCLYKPRMYKYTSSRFKTRAEQEVKKAEHVARIAEEKAREAESKARTLEVRLGGDLTRDSRVMLRQVQNRAITLRREADVKKRIKEAKQRALKEPKELNFVFGVNIEHRDLDGMFIYNCSRLIKMYEKVGPQLEGGMACGGVVGVVDVPYLVLEPTHNKQDFADAKEYRHLLRAMGEHLAQYWKDIAIAQRGIIKFWDEFGYLSANWNQPPSSELRYKRRRAMEIPTTIQCDLCLKWRTLPFQLSSVEKDYPDTWVCSMNPDPEQDRCEASEQKQKVPLGTFRKDMKTQEEKQKQLTEKIRQQQEKLEALQKTTPIRSQADLKKLPLEVTTRPSTEEPVRRPQRPRSPPLPAVIRNAPSRPPSLPTPRPASQPRKAPVISSTPKLPALAAREEASTSRLLQPPEAPRKPANTLVKTASRPAPLVQQLSPSLLPNSKSPREVPSPKVIKTPVVKKTESPIKLSPATPSRKRSVAVSDEEEVEEEAERRKERCKRGRFVVKEEKKDSNELSDSAGEEDSADLKRAQKDKGLHVEVRVNREWYTGRVTAVEVGKHVVRWKVKFDYVPTDTTPRDRWVEKGSEDVRLMKPPSPEHQSLDTQQEGGEEEVGPVAQQAIAVAEPSTSECLRIEPDTTALSTNHETIDLLVQILRNCLRYFLPPSFPISKKQLSAMNSDELISFPLKEYFKQYEVGLQNLCNSYQSRADSRAKASEESLRTSERKLRETEEKLQKLRTNIVALLQKVQEDIDINTDDELDAYIEDLITKGD | soluble |
| MGSDKIHHHHHHMRGGNIKAIVYLPLDPEKAKQNNLPVKLPVLAEDLPKVLEEDRIPLDVILRGLEAQYEITKDEYYRSYYVFFLYEKFKQLLREGKLDEAEKILEKAKEVQYDYRYHFYRGLLLKHRGELGEAEIEMRLAISMNDRFAPAYFELAGILKEKNEIEDSLLFYEKAYEVNKEFLLPLLKKGDLLLEEGRLEEAIEEYRRILEKDSNFVEVYERLGVIYNQLQRFKEAEKFFKKALEIERKDHVEYNLSYTLIKLGKLFEALEILKRLYEKNPDDPMVANEYGLLLKTLGLYEEALEVFEDAYRRHKEEEILKYNYGTILLHFEKEKAVSILSEISGELKDRAEFMISLAEKDVVIPSYEEFEWLKDYFFEGTIDVVALSEEIDSEDEDAKRRIERLREGEFPFYDTTLDSSEMLEVILGIMFESPDIFKMEENAVKFVSAFYGSSVMIASTIVLTRTFQYFLAEEEPTMEELLRELVAETQDVNWKFSLRLARFRHADRFDFNRLSDLVIAFLQSIEQGTPVSDDERLKYLLEKLTFQKEG | not soluble |
| CPDRWMKYGNHCYYFSVEEKDWNSSLEFCLARDSHLLVITDNQEMSLLQVFLSEAFSWIGLRNNSGWRWEDGSPLNFSRISSNSFVQTCGAINKNGLQASSCEVPLHWVCKK | soluble |
| MIYRKATEKDIAQLVELRKKQLEDEGIAPINNIDTELTHFFELSFKKNSFISWISEEDNEIIATSGVCFYKYPPSYLNPSGKVAYITNMYTKYEYRSRGIALALLKLVILEAKKRDYLFLRLHASDMGRPIYEEIGFKPFDDFMEMNLSLNRNGELEHHHHHH | soluble |
| MTTPFTHETLPADPKAAIRQMKQALRAQIGDVQAVFDRLSATIAARVAEINDLKAQGQPVWPIIPFSELAMGNISDATRAEVKRRGCAVIKGHFPREQALAWDQSMLDYLDKNHFDEVYKGPGDNFFGTLSASRPEIYPVYWSQAQMQARQSEEMALAQSFLNRLWQVEHDGKRWFNPDISIIYPDRIRRRPPGTTSKGLGAHTDSGALERWLLPAYQQVFASVFNGNVEQYDPWNAAHRTDVEEYTVDNTTKCSVFRTFQGWTALSDMLPGQGLLHVVPIPEAMAYILLRPLLDDVPEDELCGVAPGRVLPISEQWHPLLMAALTSIPPLEAGDSVWWHCDVIHSVAPVENQQGWGNVMYIPAAPMCEKNLAYARKVKAALETGASPGDFPREDYETTWEGRFTLRDLNIHGKRALGIDV | soluble |
| MPHWLVIDLEATTAEGGWPLEEMEIIEIGATLVAAADARELDHFQRFVRPVRRPLLTHFCRDLTHISQANVDGAAHLNTVWEAFERWLAQHRPRLAGWASWGDYDRRQLEQEWRQHGLTSQLSEVPHVNLKQRFGEVRQLPRPVGLNAALQLAGMSFQGQQHRALEDARNTARLLPLVLPVEHLEHHHHHH | soluble |
| MAHHHHHHMGGPPTIEELKREKIIPHVFPDENVDLTVDMYISFKSGKEVNHGNILDLAGTGSVPRNIKFSEEPPEDYCYILFMIDPDFPSRRRPDGRDYVHWAVSGIKSKELVKGTDKNCITLLPYVGPSIKKGTGLHRISFILSLVKEENKGNVTGVPLYRGEHYITRVKFNNCQSAYNVIQMNDMKIVGFNWCQMRRK | soluble |
| MGLPCYHMQEVIMNKANKGHLDFWRKVANSPPGSQHDWNRVFANYTATVDNPGCCVWKELLAAYPDAKVLLTLHPRGAEAWYESTIDTIYFTENVWQFKILEWLTPFGWKFGDMSRKLIWGRTLDGVMNDRAKAVARYNTYVEQVKAAVPPHKLLVYKVTEGWAPLCDFLGLEHHHHHH | not soluble |
| RPDPFPQNGLPAARLAMVAREMGHIAPFVRAVYAAQFGRGLVISDPQVLAECWAEAGLPPEAMEQAKSPEIKAALFAQGERAAALDLFGAPSFVVGEEVFWGDDRLDQALALAAQS | not soluble |
| MGSDKIHHHHHHASGGVEKINHIVVIYLENRSFDNMFGRFPGADGLEAAKGAPVQVDREGKPYTVLPPILDEKTKQPDPRFPAQIANAPFDIGPHVGQSEKHRDLVHRFYQNMEQINGGRNDKFAAWSDAGGLVMGTYDTSNTRLWALAREFTLADNFFQAAFGGSFLNHFWLICACTPQYEAAPASIRAQLDGDGHLVKDGAVTPDGYPVNTIFSFYPPYPPSATDLAKRLPPQTAPNIGDRLSGKNVSWAWYSGGYAAALEGRNQGNFQYHHQPFVYFASTGEGTKAKARHLKDEAPLFESVAAGRLESVVFYKPVGDENQHPGYADLASGDAKAARLVDAIRASALWKDTAIIITYDENGGFWDHVAPPKGDRWGPGTRIPALIISPYAKRGFVDHTVYDTTSILKLIETRFGLPPLGRRDAVANDLTAAFDFTSERR | not soluble |
| MGSDKIHHHHHHMTVAIDRTKGDQSTPGNIIRGEGYALIRNSEATPDPDKVIHIPCADSFSVIVQLRDFNSHRLWNGNKLVFDGGHPRKSISIAYLGDEIKCQHRTTYDNVRFMLPRASIKEFLYEEGQRASAEPERIIGVDDPVVYHLALALLPSFARAGERNELFIEQVMLALLTHVQDRFASTQVPVCTGKGLAPWQLRRAKELIAGHLAEGVSVARLAEECGLSRSYFTKAFKCSTGVSPHEWLMRMRVDRAKELMLGSDEPLSQIGVACGFSDQPHFSRIFLRLAGASPSTWRRVKRQRTDAAL | not soluble |
| MAHHHHHHMCLVKLYKRCFVRVPPHCVTVVYETRRNSILASSMEEANNELPQVSHFRPLMYIVSLLLYRSKKLVIVPPTSFFSTFTLPCSVLDESGDGEVVDCTVEDIHVTDGSVRMVMTIRYCIPINELERYLAAVGPTAPNERIALAAAGAARARGAELSVGLIINKSKRDTAFLEPFRAHLSSKLMSESCVKVLDVVVEAAEIADRSLGG | not soluble |
| MGSDKIHHHHHHMQTEVFSDIFPLLSTATPQTLEWLLNIAIDHEYPTGRAVLMEDAWGNAVYFVVSGWVKVRRTCGDDSVALAILGRGDFFGEMAILDESPRSTDVIALSPVKLLSISRERFIQILFKDPQLHHRMLQLMVRRLRQINQRLQIRSSPPAVKLAHTLVSLGESYGQESEQGREIFNIPFKDLAEVTEIGVEETSKIMDKLHDKGWIKIDSANNIIYLINFKQLLNLAGKV | not soluble |
| MRKAAVIGGSLGGLFAANLLLRAGWDVHVHERVHDELDGRGAGIVTHPELLDVLRRIGVAPTESIGIEVARRVTLDLDGSVLASRALPQLLTAWGRLFSILRTRFPAERYHRGQALESLEQDERRALLRFADGARAEVDLVVAADGLRSTLRQALLPQARPAYAGYVAWRGLVDEASLSERTRRELCPYFAFGLPAHEQMIAYPVAGTGSGAQDAARRFNFVWYRPADEHTTFRDMVTDAQGQAWMDGIPPPLIRPEIVAQARQAAAQVLAPQFGEVVAKTANLFFQPIFDLESPRLALGRVALLGDAAFVARPHCGMGVTKAAGDARALAYALAGTPDIGAALQAYEDERLPFGKFIVGHARDLGRYMQAQLRDDAEREMAERYRTPEAIMRETAVAPAWRLEHHHHHH | not soluble |
| MSLGEDEEKAFIVGTVQAIFFENPSNFYKVVLVNVTDTNTDYLEKEIVVTGSFGQVQEEEPYRFFGHFVDHPRYGRQFQVDSYQQERPTSASGVVNYLSSDKFPGIGKRTAEKIVEVLGESAIDRIIDDPSVLEEVTVLNEKKRQVIVETIRLNHGMEQVIVGLNRYGFGSQLAFSIYQTYQEETLSVIQENPYQLVEDIEGVGFKRADNIAEQIGIQADSAVRIRAAILHEVFEHSIRSGNTYVQADVLLEEAIRTLEASRPVEISPDQVANEIITLVEHGKIQQEETKLFENSLYFSEWGIGTSIQRLLSRKKEIHYEEEEVQKNIRMIEKRLNIQYGDSQQAAIEEAIKSPLFILTGGPGTGKTTVINGIVSLFAELNGLSLDLKDYTQEMFPILLAAPTGRAAKRMNETTGLPASTIHRLLGLTGREKNPSLTAKELEGGLLIVDEMSMVDTWLANTLLKAIPTNMQVIFVGDKDQLPSVGPGQVLHDLLQINEIPKCELNEIYRQGDGSSIIPLAHEIKEGKLPADFQKNQKDRSFFASDIGHIEEYIRQIVTKAKAKGFTPQDIQVLAPMYRGAAGIDALNKMMQEIFNPNDGKKKEVKWNDTVYRIGDKVLQLVNTPELNVFNGDMGEIVGITLAKDSEDKVDELVLQFDNNEVTYKRNEWNKITLSYCCSIHKAQGSEFRMVLLPMVHQYSRMLQRNLLYTAVTRSKELLILLGEVSAFETCVKNESASRMTMLKERIVNAEQEGHHHHHH | soluble |
| AIAADSAVRGPPGMGGTSTDNMDSVVQGDRRPGSHKGFVEEMRFVAMRLHTRDQAKEGTLEESALPIQEWQPSQQDYLQFLVDSKHVYDFFENFMNQSQDNMFVNFRRTGLERVSALEEDLDWFRQRGFSIPKPEKPGVAYVEYLQSLVQDKPHALLCHWYNFYFAHTAGGRMIGRLMSKLLFDGHVFEFYKWEGDVKQILDQVRVKIDETARDWPREVKDECLKETGLSFSYSGTILGHLAKRG | soluble |
| MGSDKIHHHHHHMSLFNLSLVTFEIDHEDCWSKLTSSFPVQVKTIFAKPSKGKDYILGMDEVKTYNRRVFKDFLKSFKKEKSIYEIIQILELDSRRGIYRILFKERYENMIMSIIENYMTLYIKDLIKEGNERLLLIMPSSDVTMLKRDLESIGKIHYFNAKLVNFNDFVPTFFDFSEQERNAVLHAIRLGYYEYPRRINLEELGKIMGISKPTLEEYLRKAEKKIMSKIFREFYQQDLLFHSPDY | not soluble |
| MGSDKIHHHHHHMDSNYTKAGYLTEPFKIFHLRDEHKLNIDFHYHDFHKILIHLHGNVSYCIEGRSYELKEHDIVLVNAGEVHKPILNDDSIYERIIIYVSQQLIDDYVSKGYDLACCFKQAYANQSHVLRLAATKGSRLADTIKGLDSTLRETNEYANELYQKLLFLEFLIQLNRITLHGGIEYINTFSSNKKIVEILDFLNKNLTNRISIDELADKFYMSRYHLMHTFKEETGCTIGSYITTKRLLLARDMIRDGSSVSAACDACGFGSYSSFIRAYRKQFHSTPTNT | not soluble |
